System: lung cancer patients
Test: Multicenter study of nivolumab in lung cancer patients: adverse events (interstitial pneumonia)
Source text: Multicenter study ([sequence] University Hospital, Nagasaki Genbaku Hospital) [Subjects] Lung cancer patients [Selection criteria]
Employed were patients who had been histologically confirmed to have lung cancer through computed tomography (any T, any N, and M1, stage IV), and
who were 20 to 75 years old with performance status (PS) of 0 and retaining the functions of main tissues, met the study criteria of our institution, and voluntarily submitted a consent form to participate in the study after receiving explanation on the characteristics of the study.
This blood collection is performed concomitantly with regular blood collection during hospitalization, and no additional puncture is performed for the blood collection.

With “nivolumab: human-type anti-PD-1 monoclonal antibody” the “interstitial pneumonia with DAD (diffuse alveolar damage), acute exacerbation” value (13 lung cancer patients given nivolumab, other two cases OP) was “TR01 and TR02 were presenting with DAD” and the death (among DAD cases, in spite of discontinuation of administration) was “one case resulted in death”.

Reference: US20220011297A1, “METHOD FOR PREDICTING EFFECT OF IMMUNE CHECKPOINT INHIBITOR” (NAGASAKI UNIVERSITY, priority 2018, published 2022)
